Data on 15 proteins can be found in patent US20230303994.

B1: trypsin variant SEQ ID NO: 81 (protein)
chain: IVGGYTCAANSIPYQVSLNSGSHRCGGSLINSQWVVSAAHCYKSRIQVRLGEHNIHVLEGNEQFINAAKIITHPNFNPNTLDNDIMLIKLSSPATLNSHVATVSLPTSCAAAGTECLISGWGNTASSGSSMPSLLQCLKAPVLSDSSCKSSYPGQITGNMICVGFLEGGKDACQGDSGGPVVCNGQLQGIVSSGYGCAQKNKPGVYTKVCNYVNWIQQTIAAN
On to B1, for which, in the data set with pre-pro-insulin glargine, the Purity Insulin Glargine amounted to 89.7 area %, the Yield was > 90%, the desArg was 1.2 area % and the desThr is 0.5 area %. In the data set with pre-pro-human insulin, the “Activity PPI cleavage” value was “yes” and the Selectivity is >90%.

B2: trypsin variant SEQ ID NO: 93 (protein)
chain: IVGGYTCAANSIPYQVSLNSGSHRCGGSLINSQWVVSAAHCYKSRIQVRLGEHNIDVLEGNEQFINAAKIITHPNFNPNTLDNDIMLIKLSSPATLNSNVATVSLPTSCAAAGTECLISGWGNTCSSGSSMPSLLQCLKAPVLSDSSCKSSYPGQITGNMICVGFLEGGADACQGDSGGPVVCNGQLQGIVSSGYGCAQKNKPGVYTKVCNYVNWIQQTIAAN
For the protein B2, in the data set with pre-pro-insulin glargine, the Purity Insulin Glargine came out at 71.3 area %, the Yield was > 75%, the desArg amounted to 0.7 area % and the desThr was found to be 0.3 area %. Also, in the data set with pre-pro-human insulin, the “Activity PPI cleavage” value is “yes” and the Selectivity was >90%.

B3: trypsin variant SEQ ID NO: 87 (protein)
chain: IVGGYTCAANSIPYQVSLNSGSHRCGGSLINSQWVVSAAHCYKPRIQVRLGEHNIHVLEGNEQFINAAKIITHPNFNPNTLDNDIMLIKLSSPATLNSHVATVSLPTSCAAAGTECLISGWGNTSSSGSSMPSLLQCLKAPVLSDSSCKSSYPGQITGNMICVGFLEGGKDACQGDSGGPVVCNGQLQGIVSSGYGCAQKNKPGVYTKVCNYVNWIQQTIAAN
Take B3: in the data set with pre-pro-insulin glargine, the Purity Insulin Glargine amounted to 83.8 area %, the Yield was > 80%, the desArg is 0.6 area % and the desThr came to 0.3 area %. In addition, in the data set with pre-pro-human insulin, the “Activity PPI cleavage” value is “yes” and the Selectivity is recorded as >90%.

B4: trypsin variant SEQ ID NO: 10 (protein)
chain: IVGGYTCAANSIPYQVSLNSGSHRCGGSLINSQWVVSAAHCYKSRIQVRLGEHNIDVLEGNEQFINAAKIITHPNFNGNTLDNDIMLIKLSSPATLNSTVATVSLPRSCAAAGTECLISGWGNTKSSGSSYPSLLQCLKAPVLSDSSCKSSYPGQITGNMICVGFLEGGKDACQGDSGGPVVCNGQLQGIVSSGYGCAQKNKPGVYTKVCNYVNWIQQTIAAN
On to B4, for which, in the data set with pre-pro-insulin glargine, the Purity Insulin Glargine worked out at 82.7 area %, the Yield was > 90%, the desArg was < 0.5 area % and the desThr worked out at 2.6 area %. Further, in the data set with pre-pro-human insulin, the “Activity PPI cleavage” value was “yes” and the Selectivity is on record as >90%.

B5: trypsin variant SEQ ID NO: 84 (protein)
chain: IVGGYTCAANSIPYQVSLNSGSHRCGGSLINSQWVVSAAHCYKPRIQVRLGEHNIHVLEGNEQFINAAKIITHPNFNPNTLDNDIMLIKLSSPATLNSNVATVSLPTSCAAAGTECLISGWGNTSSSGSSMPSLLQCLKAPVLSDSSCKSSYPGQITGNMICVGFLEGGKDSCQGDSGGPVVCNGQLQGIVSSGYGCAQKNKPGVYTKVCNYVNWIQQTIAAN
Take B5: in the data set with pre-pro-insulin glargine, the Purity Insulin Glargine is 85.4 area %, the Yield is > 90%, the desArg was determined as 0.6 area % and the desThr is 1.6 area %. In addition, in the data set with pre-pro-human insulin, the “Activity PPI cleavage” value is “yes” and the Selectivity is reported as >90%.

B6: trypsin variant SEQ ID NO: 91 (protein)
chain: IVGGYTCAANSIPYQVSLNSGSHRCGGSLINSQWVVSAAHCYKPRIQVRLGEHNIHVLEGNEQFINAAKIITHPNFNPNTLDNDIMLIKLSSPATLNSAVATVSLPTSCAAAGTECLISGWGNTSSSGSSMPSLLQCLKAPVLSDSSCKSSYPGQITGNMICVGFLEGGKDACQGDSGGPVVCNGQLQGIVSSGYGCAQKNKPGVYTKVCNYVNWIQQTIAAN
Take B6: in the data set with pre-pro-insulin glargine, the Purity Insulin Glargine is 86.8 area %, the Yield is > 90%, the desArg turned out to be 1 area % and the desThr is 0.3 area %. Further, in the data set with pre-pro-human insulin, the “Activity PPI cleavage” value is reported as “yes” and the Selectivity is listed as >90%.

B7: trypsin variant SEQ ID NO: 88 (protein)
chain: IVGGYTCAANSIPYQVSLNSGSHRCGGSLINSQWVVSAAHCYKPRIQVRLGEHNIHVLEGNEQFINAAKIITHPNFNPNTLDNDIMLIKLSSPATLNSHVATVSLPTSCAAAGTECLISGWGNTSSSGSSMPSLLQCLKAPVLSDSSCKSSYPGQITGNMICVGFLEGGKDSCQGDSGGPVVCNGQLQGIVSSGYGCAQKNKPGVYTKVCNYVNWIQQTIAAN
On to B7, for which, in the data set with pre-pro-insulin glargine, the Purity Insulin Glargine came to 84.3 area %, the Yield was > 90%, the desArg was 0.7 area % and the desThr came out at 1.9 area %. Further, in the data set with pre-pro-human insulin, the “Activity PPI cleavage” value was “yes” and the Selectivity is recorded as >90%.

B8: trypsin variant SEQ ID NO: 82 (protein)
chain: IVGGYTCAANSIPYQVSLNSGSHRCGGSLINSQWVVSAAHCYKPRIQVRLGEHNIHVLEGNEQFINAAKIITHPNFNPNTLDNDIMLIKLSSPATLNSHVATVSLPRSCAAAGTECLISGWGNTCSSGSSMPSLLQCLKAPVLSDSSCKSSYPGQITGNMICVGFLEGGKDACQGDSGGPVVCNGQLQGIVSSGYGCAQKNKPGVYTKVCNYVNWIQQTIAAN
Consider B8, for which, in the data set with pre-pro-insulin glargine, the Purity Insulin Glargine was 83.8 area %, the Yield was > 80%, the desArg was determined as 0.6 area % and the desThr came to 0.3 area %. In the data set with pre-pro-human insulin, the “Activity PPI cleavage” value is listed as “yes” and the Selectivity is on record as >90%.

B9: trypsin variant SEQ ID NO: 11 (protein)
chain: IVGGYTCAANSIPYQVSLNSGSHRCGGSLINSQWVVSAAHCYKSRIQVRLGEHNIDVLEGNEQFINAAKIITHPNFNGNTLDNDIMLIKLSSPATLNSNVATVSLPRSCAAAGTECLISGWGNTKSSGSSYPSLLQCLKAPVLSDSSCKSSYPGQITGNMICVGFLEGGKDACQGDSGGPVVCNGQLQGIVSSGYGCAQKNKPGVYTKVCNYVNWIQQTIAAN
On to B9, for which, in the data set with pre-pro-insulin glargine, the Purity Insulin Glargine is 84.1 area %, the Yield was > 90%, the desArg was < 0.5 area % and the desThr stood at 2.2 area %. For the same protein, in the data set with pre-pro-human insulin, the “Activity PPI cleavage” value is “yes” and the Selectivity is >90%.

B10: trypsin variant SEQ ID NO: 83 (protein)
chain: IVGGYTCAANSIPYQVSLNSGSHRCGGSLINSQWVVSAAHCYKPRIQVRLGEHNIHVLEGNEQFINAAKIITHPNFNPNTLDNDIMLIKLSSPATLNSNVATVSLPTSCAAAGTECLISGWGNTSSSGSSMPSLLQCLKAPVLSDSSCKSSYPGQITGNMICVGFLEGGKDACQGDSGGPVVCNGQLQGIVSSGYGCAQKNKPGVYTKVCNYVNWIQQTIAAN
For B10, in the data set with pre-pro-insulin glargine, the Purity Insulin Glargine turned out to be 89 area %, the Yield is > 90%, the desArg was < 0.5 area % and the desThr was 1.2 area %. Further, in the data set with pre-pro-human insulin, the “Activity PPI cleavage” value is “yes” and the Selectivity was >90%.

B11: trypsin variant SEQ ID NO: 89 (protein)
chain: IVGGYTCAANSIPYQVSLNSGSHRCGGSLINSQWVVSAAHCYKPRIQVRLGEHNIHVLEGNEQFINAAKIITHPNFNPNTLDNDIMLIKLSSPATLNSHVATVSLPTSCAAAGTECLISGWGNTASSGSSMPSLLQCLKAPVLSDSSCKSSYPGQITGNMICVGFLEGGKDACQGDSGGPVVCNGQLQGIVSSGYGCAQKNKPGVYTKVCNYVNWIQQTIAAN
For the protein B11, in the data set with pre-pro-insulin glargine, the Purity Insulin Glargine is 88.1 area %, the Yield is > 90%, the desArg is 0.5 area % and the desThr came to 1.2 area %. In the data set with pre-pro-human insulin, the “Activity PPI cleavage” value was “yes” and the Selectivity is given as >90%.

B12: trypsin variant SEQ ID NO: 85 (protein)
chain: IVGGYTCAANSIPYQVSLNSGSHRCGGSLINSQWVVSAAHCYKPRIQVRLGEHNIHVLEGNEQFINAAKIITHPNFNPNTLDNDIMLIKLSSPATLNSHVATVSLPTSCAAAGTECLISGWGNTCSSGSSMPSLLQCLKAPVLSDSSCKSSYPGQITGNMICVGFLEGGKDACQGDSGGPVVCNGQLQGIVSSGYGCAQKNKPGVYTKVCNYVNWIQQTIAAN
Turning to B12, in the data set with pre-pro-insulin glargine, the Purity Insulin Glargine was found to be 85.4 area %, the Yield is > 90%, the desArg came to 1.1 area % and the desThr was found to be 0.2 area %. In the data set with pre-pro-human insulin, the “Activity PPI cleavage” value was “yes” and the Selectivity was >90%.

B13: trypsin variant SEQ ID NO: 90 (protein)
chain: IVGGYTCAANSIPYQVSLNSGSHRCGGSLINSQWVVSAAHCYKPRIQVRLGEHNIHVLEGNEQFINAAKIITHPNFNPNTLDNDIMLIKLSSPATLNSHVATVSLPTSCAAAGTECLISGWGNTASSGSSMPSLLQCLKAPVLSDSSCKSSYPGQITGNMICVGFLEGGKDSCQGDSGGPVVCNGQLQGIVSSGYGCAQKNKPGVYTKVCNYVNWIQQTIAAN
Take B13: in the data set with pre-pro-insulin glargine, the Purity Insulin Glargine was determined as 89.5 area %, the Yield is > 90%, the desArg worked out at 0.9 area % and the desThr turned out to be 0.2 area %. In addition, in the data set with pre-pro-human insulin, the “Activity PPI cleavage” value is “yes” and the Selectivity is >90%.

B14: trypsin variant SEQ ID NO: 92 (protein)
chain: IVGGYTCAANSIPYQVSLNSGSHRCGGSLINSQWVVSAAHCYKPRIQVRLGEHNIHVLEGNEQFINAAKIITHPNFNPNTLDNDIMLIKLSSPATLNSAVATVSLPTSCAAAGTECLISGWGNTCSSGSSMPSLLQCLKAPVLSDSSCKSSYPGQITGNMICVGFLEGGKDACQGDSGGPVVCNGQLQGIVSSGYGCAQKNKPGVYTKVCNYVNWIQQTIAAN
With B14, in the data set with pre-pro-insulin glargine, the Purity Insulin Glargine was 88.1 area %, the Yield is > 90%, the desArg worked out at 0.9 area % and the desThr came to 0.6 area %. In addition, in the data set with pre-pro-human insulin, the “Activity PPI cleavage” value was “yes” and the Selectivity is listed as >90%.

B15: trypsin variant SEQ ID NO: 86 (protein)
chain: IVGGYTCAANSIPYQVSLNSGSHRCGGSLINSQWVVSAAHCYKPRIQVRLGEHNIDVLEGNEQFINAAKIITHPNFNPNTLDNDIMLIKLSSPATLNSAVATVSLPTSCAAAGTECLISGWGNTSSSGSSMPSLLQCLKAPVLSDSSCKSSYPGQITGNMICVGFLEGGKDACQGDSGGPVVCNGQLQGIVSSGYGCAQKNKPGVYTKVCNYVNWIQQTIAAN
As for B15, in the data set with pre-pro-insulin glargine, the Purity Insulin Glargine stood at 79.3 area %, the Yield is > 80%, the desArg stood at 0.8 area % and the desThr turned out to be 0.1 area %. Further, in the data set with pre-pro-human insulin, the “Activity PPI cleavage” value is listed as “yes” and the Selectivity is given as >90%.
